Laboratory results taken from the Human Domainome abundance scans (Beltran et al. 2025).
± gives the uncertainty stated by the source.

B1: Retinoic acid receptor RXR-alpha, residues 132 to 208; numbered along this chain, P19793 (parent)
chain: KHICAICGDRSSGKHYGVYSCEGCKGFFKRTVRKDLTYTCRDNKDCLIDKRQRNRCQYCRYQKCLAMGMKREAVQEE

Variants of: B1
Test: abundance fitness (aPCA) (normalised: wild type 0, dead -1); higher = more abundant; growth selection in yeast, the domain comes from the species named
Conditions: Homo sapiens

| Variant | abundance fitness |
| --- | --- |
| KHIWAICGDRSSGKHYGVYSCEGCKGFFKRTVRKDLTYTCRDNKDCLIDKRQRNRCQYCRYQKCLAMGMKREAVQEE [C4W] | -1.3 ± 0.19 |
| KHIYAICGDRSSGKHYGVYSCEGCKGFFKRTVRKDLTYTCRDNKDCLIDKRQRNRCQYCRYQKCLAMGMKREAVQEE [C4Y] | -0.875 ± 0.099 |
| KHICDICGDRSSGKHYGVYSCEGCKGFFKRTVRKDLTYTCRDNKDCLIDKRQRNRCQYCRYQKCLAMGMKREAVQEE [A5D] | 0.016 ± 0.044 |
| KHICEICGDRSSGKHYGVYSCEGCKGFFKRTVRKDLTYTCRDNKDCLIDKRQRNRCQYCRYQKCLAMGMKREAVQEE [A5E] | 0.04 ± 0.036 |
| KHICFICGDRSSGKHYGVYSCEGCKGFFKRTVRKDLTYTCRDNKDCLIDKRQRNRCQYCRYQKCLAMGMKREAVQEE [A5F] | 0.171 ± 0.065 |
| KHICGICGDRSSGKHYGVYSCEGCKGFFKRTVRKDLTYTCRDNKDCLIDKRQRNRCQYCRYQKCLAMGMKREAVQEE [A5G] | -0.045 ± 0.027 |
| KHICHICGDRSSGKHYGVYSCEGCKGFFKRTVRKDLTYTCRDNKDCLIDKRQRNRCQYCRYQKCLAMGMKREAVQEE [A5H] | 0.044 ± 0.063 |
| KHICIICGDRSSGKHYGVYSCEGCKGFFKRTVRKDLTYTCRDNKDCLIDKRQRNRCQYCRYQKCLAMGMKREAVQEE [A5I] | 0.055 ± 0.084 |
| KHICLICGDRSSGKHYGVYSCEGCKGFFKRTVRKDLTYTCRDNKDCLIDKRQRNRCQYCRYQKCLAMGMKREAVQEE [A5L] | 0.037 ± 0.037 |
| KHICMICGDRSSGKHYGVYSCEGCKGFFKRTVRKDLTYTCRDNKDCLIDKRQRNRCQYCRYQKCLAMGMKREAVQEE [A5M] | 0.036 ± 0.048 |
| KHICNICGDRSSGKHYGVYSCEGCKGFFKRTVRKDLTYTCRDNKDCLIDKRQRNRCQYCRYQKCLAMGMKREAVQEE [A5N] | -0.022 ± 0.055 |
| KHICPICGDRSSGKHYGVYSCEGCKGFFKRTVRKDLTYTCRDNKDCLIDKRQRNRCQYCRYQKCLAMGMKREAVQEE [A5P] | -0.074 ± 0.052 |
| KHICQICGDRSSGKHYGVYSCEGCKGFFKRTVRKDLTYTCRDNKDCLIDKRQRNRCQYCRYQKCLAMGMKREAVQEE [A5Q] | 0.036 ± 0.046 |
| KHICRICGDRSSGKHYGVYSCEGCKGFFKRTVRKDLTYTCRDNKDCLIDKRQRNRCQYCRYQKCLAMGMKREAVQEE [A5R] | 0.044 ± 0.032 |
| KHICSICGDRSSGKHYGVYSCEGCKGFFKRTVRKDLTYTCRDNKDCLIDKRQRNRCQYCRYQKCLAMGMKREAVQEE [A5S] | 0.02 ± 0.036 |
| KHICTICGDRSSGKHYGVYSCEGCKGFFKRTVRKDLTYTCRDNKDCLIDKRQRNRCQYCRYQKCLAMGMKREAVQEE [A5T] | 0.045 ± 0.049 |
| KHICVICGDRSSGKHYGVYSCEGCKGFFKRTVRKDLTYTCRDNKDCLIDKRQRNRCQYCRYQKCLAMGMKREAVQEE [A5V] | -0.054 ± 0.033 |
| KHICWICGDRSSGKHYGVYSCEGCKGFFKRTVRKDLTYTCRDNKDCLIDKRQRNRCQYCRYQKCLAMGMKREAVQEE [A5W] | 0.03 ± 0.042 |

| Variant | abundance fitness |
| --- | --- |
| KHICAACGDRSSGKHYGVYSCEGCKGFFKRTVRKDLTYTCRDNKDCLIDKRQRNRCQYCRYQKCLAMGMKREAVQEE [I6A] | -0.145 ± 0.038 |
| KHICACCGDRSSGKHYGVYSCEGCKGFFKRTVRKDLTYTCRDNKDCLIDKRQRNRCQYCRYQKCLAMGMKREAVQEE [I6C] | 0.008 ± 0.048 |
| KHICADCGDRSSGKHYGVYSCEGCKGFFKRTVRKDLTYTCRDNKDCLIDKRQRNRCQYCRYQKCLAMGMKREAVQEE [I6D] | -0.729 ± 0.097 |
| KHICAGCGDRSSGKHYGVYSCEGCKGFFKRTVRKDLTYTCRDNKDCLIDKRQRNRCQYCRYQKCLAMGMKREAVQEE [I6G] | -0.386 ± 0.068 |
| KHICAHCGDRSSGKHYGVYSCEGCKGFFKRTVRKDLTYTCRDNKDCLIDKRQRNRCQYCRYQKCLAMGMKREAVQEE [I6H] | -0.731 ± 0.072 |
| KHICAKCGDRSSGKHYGVYSCEGCKGFFKRTVRKDLTYTCRDNKDCLIDKRQRNRCQYCRYQKCLAMGMKREAVQEE [I6K] | -0.881 ± 0.098 |
| KHICALCGDRSSGKHYGVYSCEGCKGFFKRTVRKDLTYTCRDNKDCLIDKRQRNRCQYCRYQKCLAMGMKREAVQEE [I6L] | -0.124 ± 0.03 |
| KHICAMCGDRSSGKHYGVYSCEGCKGFFKRTVRKDLTYTCRDNKDCLIDKRQRNRCQYCRYQKCLAMGMKREAVQEE [I6M] | -0.038 ± 0.039 |
| KHICANCGDRSSGKHYGVYSCEGCKGFFKRTVRKDLTYTCRDNKDCLIDKRQRNRCQYCRYQKCLAMGMKREAVQEE [I6N] | -0.439 ± 0.048 |
| KHICAQCGDRSSGKHYGVYSCEGCKGFFKRTVRKDLTYTCRDNKDCLIDKRQRNRCQYCRYQKCLAMGMKREAVQEE [I6Q] | -0.909 ± 0.11 |
| KHICARCGDRSSGKHYGVYSCEGCKGFFKRTVRKDLTYTCRDNKDCLIDKRQRNRCQYCRYQKCLAMGMKREAVQEE [I6R] | -0.687 ± 0.065 |
| KHICASCGDRSSGKHYGVYSCEGCKGFFKRTVRKDLTYTCRDNKDCLIDKRQRNRCQYCRYQKCLAMGMKREAVQEE [I6S] | -0.438 ± 0.036 |
| KHICATCGDRSSGKHYGVYSCEGCKGFFKRTVRKDLTYTCRDNKDCLIDKRQRNRCQYCRYQKCLAMGMKREAVQEE [I6T] | -0.064 ± 0.033 |
| KHICAYCGDRSSGKHYGVYSCEGCKGFFKRTVRKDLTYTCRDNKDCLIDKRQRNRCQYCRYQKCLAMGMKREAVQEE [I6Y] | -0.881 ± 0.085 |
| KHICAIAGDRSSGKHYGVYSCEGCKGFFKRTVRKDLTYTCRDNKDCLIDKRQRNRCQYCRYQKCLAMGMKREAVQEE [C7A] | -0.919 ± 0.11 |
| KHICAIDGDRSSGKHYGVYSCEGCKGFFKRTVRKDLTYTCRDNKDCLIDKRQRNRCQYCRYQKCLAMGMKREAVQEE [C7D] | -0.357 ± 0.053 |
| KHICAIEGDRSSGKHYGVYSCEGCKGFFKRTVRKDLTYTCRDNKDCLIDKRQRNRCQYCRYQKCLAMGMKREAVQEE [C7E] | -0.769 ± 0.13 |
| KHICAIFGDRSSGKHYGVYSCEGCKGFFKRTVRKDLTYTCRDNKDCLIDKRQRNRCQYCRYQKCLAMGMKREAVQEE [C7F] | -1.19 ± 0.14 |
